These results are taken from US12723100 (CSPC MEGALITH BIOPHARMACEUTICAL, dated 2026).

In test [1] the target is T1, human Nectin 2 (ACROBiosystems, Catalog no: PV2-H52E2) (human, UniProt Q92692 32-360).
T1 construct: extracellular domain
T1 sequence (looked up): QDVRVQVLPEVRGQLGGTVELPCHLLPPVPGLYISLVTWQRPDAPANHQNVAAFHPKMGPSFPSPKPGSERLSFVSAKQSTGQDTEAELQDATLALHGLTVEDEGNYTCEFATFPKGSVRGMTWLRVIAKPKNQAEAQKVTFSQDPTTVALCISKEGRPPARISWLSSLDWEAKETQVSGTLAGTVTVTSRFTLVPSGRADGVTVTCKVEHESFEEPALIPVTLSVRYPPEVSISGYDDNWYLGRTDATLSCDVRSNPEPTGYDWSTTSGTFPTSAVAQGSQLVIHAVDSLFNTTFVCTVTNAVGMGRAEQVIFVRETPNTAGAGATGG
Nature of the test: ELISA or Gator binding assay.

In test [2] the target is T2, human Nectin-1 with His tag (ACROBiosystems, catalog number PV1-H5223) (human, UniProt Q15223 31-355, biotinylated in Example 3 (sites not given)).
T2 construct: Bought protein; also called biotinylated human Nectin-1
T2 sequence: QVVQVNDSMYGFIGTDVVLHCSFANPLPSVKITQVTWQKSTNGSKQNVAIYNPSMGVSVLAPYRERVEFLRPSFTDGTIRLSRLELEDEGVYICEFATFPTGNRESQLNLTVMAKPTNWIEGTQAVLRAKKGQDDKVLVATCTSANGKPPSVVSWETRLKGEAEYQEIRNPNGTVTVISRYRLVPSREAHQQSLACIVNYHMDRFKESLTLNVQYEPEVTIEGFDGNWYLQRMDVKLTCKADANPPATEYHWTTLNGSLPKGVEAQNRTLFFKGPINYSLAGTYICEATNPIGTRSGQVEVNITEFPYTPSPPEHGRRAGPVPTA
Description: ELISA or Gator binding assay. A general note: An ELISA detects its analyte on a solid surface through an enzyme-linked reagent.

The target in test [3] is T3, human recombinant Nectin-4 protein (extracellular domain) (human, UniProt Q96NY8 32-349).
T3 construct: also called recombinant Nectin-4 (extracellular domain); human Nectin-4 recombinant protein
T3 sequence: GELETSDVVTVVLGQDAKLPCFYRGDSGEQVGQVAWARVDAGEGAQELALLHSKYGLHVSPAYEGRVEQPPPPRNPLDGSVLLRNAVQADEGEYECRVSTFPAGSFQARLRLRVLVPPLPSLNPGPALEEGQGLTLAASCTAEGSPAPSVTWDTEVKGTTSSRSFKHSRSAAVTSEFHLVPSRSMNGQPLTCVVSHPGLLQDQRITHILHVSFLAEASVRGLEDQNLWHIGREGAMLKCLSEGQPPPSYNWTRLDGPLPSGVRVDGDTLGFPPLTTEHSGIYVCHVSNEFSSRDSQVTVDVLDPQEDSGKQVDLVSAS
Description: ELISA, recombinant human Nectin-4 coated on plate. Here is the method:
The binding specificity of the disclosed anti-Nectin-4 antibodies was assessed by ELISA. Briefly, human recombinant Nectin-4 protein was directly coated to ELISA plates. Purified antibodies were then added to the plates followed by detection by goat-anti-mouse IgG-HRP. After addition of ABTS substrate, ELISA plates were read using an ELISA plate reader (Bioteck). The controls depicted in FIG. 2: PC1 refers to a reference antibody (known to be a Nectin-4 specific recombinant antibody, made by Novarock Biotherapeutics, lot no: 03042020KD); the negative control is a human IgG1 (Dendritics, catalog no: DDXCH01P-100, lot no: DDXCH01-028).
The ELISA binding EC50 values of the eight anti-Nectin-4 antibodies, N4_mAb 1 to N4_mAb 8 and the positive control antibody were listed in Table 3 below.

Test [4] has as its target T4, full-length human Nectin-4 on cells (human, UniProt Q96NY8 32-510).
T4 construct: the cell is named under assay; also called CHO-Nectin-4 cells; Nectin-4-CHO
T4 sequence: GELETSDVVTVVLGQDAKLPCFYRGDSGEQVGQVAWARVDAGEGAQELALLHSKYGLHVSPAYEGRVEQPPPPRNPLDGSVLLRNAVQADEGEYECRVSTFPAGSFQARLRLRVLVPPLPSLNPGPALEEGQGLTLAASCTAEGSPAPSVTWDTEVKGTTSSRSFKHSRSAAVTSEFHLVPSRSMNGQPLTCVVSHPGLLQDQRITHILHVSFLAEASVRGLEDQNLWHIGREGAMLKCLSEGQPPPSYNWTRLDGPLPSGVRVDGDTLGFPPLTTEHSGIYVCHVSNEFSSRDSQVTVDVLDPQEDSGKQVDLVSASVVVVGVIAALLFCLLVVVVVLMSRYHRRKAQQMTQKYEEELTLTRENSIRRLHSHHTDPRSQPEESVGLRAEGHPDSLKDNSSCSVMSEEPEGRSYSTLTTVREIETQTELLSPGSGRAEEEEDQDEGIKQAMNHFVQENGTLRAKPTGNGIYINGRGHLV
Nature of the test: flow cytometry competition on CHO-Nectin-4 cells; competitor biotinylated human TIGIT. Here is the method:
The ability of disclosed Nectin4-specific antibodies to block TIGIT binding to CHO-Nectin-4 cells was assessed by FACS. Briefly, CHO-Nectin-4 cells were incubated with dilutions of the disclosed purified recombinant antibodies. Then, biotinylated human TIGIT protein (SinoBiologic, catalog: 10917-H08H-B, lot: LC13AP0902) was added to the plate. After 30-minute incubation, cells were washed, followed by adding Streptavidin Alexa 647 (1:1000) to the samples. After a 30 minute incubation, the samples were analyzed on a flow cytometry instrument (Intellicyte, IQue plus, Sartorius) for TIGIT blocking activity. The positive control antibody used in this blocking assay is PC2, a Nectin-4 antibody with known blocking activity.

B1: N4_mAb 2 (antibody, human IgG1, V domains shown)
VH: QVQLKQSGPNLVQPSQSLSITCTVSGFSLTTYGAHWVRQSPGKGLEWLGVIWRGGSTDYNAAFMSRLSITKDNSKSQVFFKMNSLQADDTAIYYCAKIGYDGYAMDNWGQGTSVTVSS
VL: DFQVTQSPASLSASVGETVTITCRTSENIHNYLAWYQQKQGKSPQLLVYNAKTLADGVPSRFSGSGSGTQYSLKINSLQPEDFGTYYCQHFWSSPWTFGGGTKLEIK
notes: Tested as chimera (human IgG1/kappa constants); not shown: human IgG1 constant region (Uniprot P01857); human Kappa light chain constant region (UniProt P01834)
Take B1: the binding result in test [1] and in test [2] was “no binding” each time. The EC50 is 0.12 nM in test [3] and 3.04 nM in test [4].

B2: N4_mAb 5 (antibody, human IgG1, V domains shown)
VH: EVQLQQSGPDLVKPGASVKISCKASGYSFTGHYMHWVKQSHGKSLEWIGRVNPNNGGSSYNQKFKDKAILTVDKSSTTAYMELRSLTSEDSAVYYCARDPLGGSYGFAYWGQGTLVTVSA
VL: DIVLTQSPASLAVSLGQRATISCRASQSVTTSSYSYMHWYQQKPGQPPKLLIKYASNLESGVPARFSGSGSGTDFTLNIHPVEEEDTATYYCQHSWEIPYTFGGGTKLEMK
notes: as for B1
On to B2, for which the binding result in test [1] and in test [2] was “no binding” in each case. The EC50 came to 0.13 nM in test [3] and 3.11 nM in test [4].

B3: N4_mAb 1 (antibody, human IgG1, V domains shown)
VH: QVQLKQSGPGLVQPSQSLSITCTVSGFSLTNYGVNWVRQPPGKGLEWLGVIWSGGSTDYNAAFISRLSISKDISKSQVFFKMNSLQADDTAKYYCAREGYDGYAMDYWGQGTSVTVSS
VL: DIQMTQSPASLSVSVGETVTITCRASENIFSSLAWYQQKQGKSPQLLVYGATNLADGVPSRFSGSGSGTQYSLKINSLQSEDFGTYWCQHFWGNPWTFGGGTKLEIK
notes: Tested as chimera (murine variable regions, human IgG1/kappa constants); not shown: human IgG1 constant region (Uniprot P01857); human Kappa light chain constant region (UniProt P01834)
Consider B3, for which the binding result in test [1] and in test [2] was “no binding” throughout. Moreover, the values for the EC50 in test [3] and in test [4] were 0.14 nM and 0.91 nM, respectively.

B4: N4_mAb 3 (antibody, human IgG1, V domains shown)
VH: EVQLQQSGAELVKPGASVKLSCTVSGFNIKDTYMHWVKQRPEQGLEWIGRIDPANGNTKYDPKFQGKATIIADKASNTAYLQLSSLTSEDAAVYYCAHYYGSSYFAMDCWGQGTSVTVSS
VL: DIVMTQSHKFMSTSVGDRVSITCKASQDVSTAVAWYQQKPGQSPKLLIYWASTRHTGVPDRFTGSGSGTDYTLTISSVQTEDLALYYCQQHYSTPLTFGAGTKLELK
notes: as for B1
On to B4, for which the binding result in test [1] and in test [2] was “no binding” each time. Also, the EC50 was determined as 1.51 nM in test [3] and 0.94 nM in test [4].

B5: N4_mAb 6 (antibody, human IgG1, V domains shown)
VH: QVQLQQSGPELVKPGASVRISCKASGYTFTTYYIHWVKQRPGQGLEWIGWIYPGNVNTKYTENFKDKATLTADKSSSTAYMQLSSLTSEDSAVYFCARGLYYFDFWGQGTTLTVSS
VL: SIVMTQTPKFLLVSAGDRVTITCKASQSVNNDVAWYQQKPGQSPKLLIYYASNRDTGVPDRFTGSGFGTDFTFTISSVQAEDLAVYFCQQDYSSPYTFGGGTKLEIK
notes: as for B3
On to B5, for which the binding result in test [1] and in test [2] was “no binding” each time. The concentration giving a half-maximal response (EC50) worked out at 0.03 nM in test [3] and 0.31 nM in test [4].

B6: N4_mAb 7 (antibody, human IgG1, V domains shown)
VH: QVQLQQSGPELVKPGASVKMSCKASGYTFTTYYIHWVKQRPGQGLEWIGWIYPGNAGIKSNEKFKGKTTLTADKSSSTAYMLLSSLTSEDSAIYFCARGVYFFDYWGQGTTLTVSS
VL: SIVMTQTPKFLLVSAGDRVTITCKASQSVNNDVSWFQQKPGQSPKLLIYYASNRYTGVPDRFSGSGYGTDFTFTITTVQAEDLAVYFCQQDYSSPYTFGGGTKLEIK
notes: as for B3
Regarding B6, the binding result in test [1] and in test [2] was “no binding” throughout. Moreover, the EC50 in test [3] worked out at 0.04 nM; in test [4], 0.75 nM.

B7: N4_mAb 8 (antibody, human IgG1, V domains shown)
VH: QVQLQQSGPVLVKPGASVRISCKASGYTFTSYYIHWVKQRPGQGLEWIGWIYPGNVNTKYNENFRDKATLTADKSSSTSYMQLSSLTSEDSAVYFCARGIYYFDYWGQGTTLTVSS
VL: IIVMTQTPKFLLVSAGDRVTITCKASQSVNNDVAWYQEKPGQSPKLLIYYASNRDTGVPDRFTGSGYGTDFTFTISTVQAEDLAVYFCHQDYSSPFTFGSGTKLEIK
notes: as for B3
B7: the binding result in test [1] and in test [2] was “no binding” each time. In addition, the figures for the EC50 in test [3] and in test [4] were 0.14 nM and 1.37 nM, respectively.

B8: N4_mAb 4 (antibody, human IgG1, V domains shown)
VH: DVQLQESGPDLVKPSQSLSLTCTVTGYSITSAYNWHWIRQFPGNKLEWMGYIHYSGRTNYNPSLKSRISITRDTSKNQFFLQLNSLTTEDTATYYCARWITTATGWYLDVWGAGTTVTVSS
VL: not shown
notes: as for B1
As to B8, the binding result in test [1] and in test [2] was “no binding” in each case. In addition, the EC50 in test [3] turned out to be 1.12 nM.

In general, EC50 refers to the midpoint of the concentration-response curve.
